Measurements reported in PMC3101103 (The Journal of Cell Biology, 2011).

How the values were obtained:
[1] = molecular target: ACP-TM with the C-terminal YFP fragment at its C terminus (rabbit | not stated); assay: split reporter
[2] = molecular target: N-formyl peptide receptor (FPR), nonactivating mutant D71A (UniProt P21462); assay: TIRF imaging, time course of surface-bound fluorescence
[3] = molecular target: N-formyl peptide receptor (FPR), nonactivating mutant D71A (UniProt P21462); assay: single-molecule TIRF imaging, 2D-3D Scatchard plot
[4] = molecular target: the molecule itself; assay: single-molecule TIRF imaging, duration of colocalization events
[5] = molecular target: the molecule itself; assay: single-molecule TIRF imaging, spot-intensity histograms against expression level

## ACP-TM with the N-terminal YFP fragment at its C terminus (from UniProt P42212 1-155)
[1]
  corrected lifetime of BiFC dimers: 163 ms

## N-formyl-Nle-Leu-Phe-Nle-Tyr-Lys conjugated with Alexa Fluor 594 (peptide)
[2]
  kon: 7.6e+06 M⁻¹ s⁻¹
[3]
  Kd: 2.2 nM

B1: N-formyl peptide receptor (FPR), nonactivating mutant D71A (receptor, UniProt P21462 1-350, looked up)
chain: METNSSLPTNISGGTPAVSAGYLFLDIITYLVFAVTFVLGVLGNGLVIWVAGFRMTHTVTTISYLNLAVAAFCFTSTLPFFMVRKAMGGHWPFGWFLCKFVFTIVDINLFGSVFLIALIALDRCVCVLHPVWTQNHRTVSLAKKVIIGPWVMALLLTLPVIIRVTTVPGKTGTVACTFNFSPWTNDPKERINVAVAMLTVRGIIRFIIGFSAPMSIVAVSYGLIATKIHKQGLIKSSRPLRVLSFVAAAFFLCWSPYQVVALIATVRIRELLQGMYKEIGIAVDVTSALAFFNSCLNPMLYVFMGQDFRERLIHALPASLERALTEDSTQTSDTATNSTLPSAEVELQAK
[4]
  koff: 11 s⁻¹
[5]
  stoichiometry N: 2
